Measurements taken from publication PMC3107245.

Columns and labels:
Assay in all cases: co-IP; 293T cells co-transfected with 1 µg Vpu-cmyc variant and 2 µg HA-tetherin; lysis in 50 mM Tris-HCl pH 7.4, 150 mM NaCl, 1% Triton X-100, 1% CHAPS; IP with anti-myc antibody and protein G agarose at 4°C; blot with anti-HA; tetherin quantified by densitometry, normalized by tubulin, Vpu WT = 100%
[1] = target: Vpu TM M3IT (HIV-1 NL4-3)
[2] = target: Vpu TM M3IV (HIV-1 NL4-3)
[3] = target: Vpu TM NΔ2I (HIV-1 NL4-3)
[4] = target: Vpu TM CΔ2I (HIV-1 NL4-3)

Sequence of HA-tetherin (Q10589 1-161): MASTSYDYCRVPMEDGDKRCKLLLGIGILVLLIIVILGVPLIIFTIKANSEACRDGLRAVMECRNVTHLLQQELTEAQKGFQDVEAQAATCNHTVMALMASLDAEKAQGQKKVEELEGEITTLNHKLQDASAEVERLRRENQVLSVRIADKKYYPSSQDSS

For “HA-tetherin (from UniProt Q10589 1-161) (natural protein)”, the percent of tetherin bound relative to Vpu WT (100%) [1] was 10%, the percent of tetherin bound relative to Vpu WT (100%) [2] was greater than 80% and the percent of tetherin bound relative to Vpu WT (100%) [3] was 50%. For the same substance, the percent of tetherin bound relative to Vpu WT (100%) [4] was 25%.
